According to PMC10636324 (Proceedings of the National Academy of Sciences of the …, 2023):

T1: FAM91A1^N (N terminus of FAM91A1, residues 1-328), wild type (UniProt Q658Y4 1-328)
T1 sequence (looked up): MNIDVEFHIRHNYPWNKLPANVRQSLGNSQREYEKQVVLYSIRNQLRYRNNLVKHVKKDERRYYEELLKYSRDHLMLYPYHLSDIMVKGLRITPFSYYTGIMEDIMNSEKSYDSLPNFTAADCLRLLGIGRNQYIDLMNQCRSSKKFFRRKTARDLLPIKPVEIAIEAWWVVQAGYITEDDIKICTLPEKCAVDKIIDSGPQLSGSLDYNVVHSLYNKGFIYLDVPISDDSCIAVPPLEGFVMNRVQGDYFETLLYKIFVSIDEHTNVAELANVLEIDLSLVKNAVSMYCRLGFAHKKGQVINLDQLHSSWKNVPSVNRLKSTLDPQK


biological target: T1, FAM91A1^N (N terminus of FAM91A1, …); experiment: ITC

Kd [µM]	affinity as percent of that of WT [%]	Binder
1.15 ± 0.16		TPVDRHVSSSDRVGKPYRGVKPVFS (peptide, UniProt Q9NUY8-2 514-538, looked up) [TBC1D23^514-538 wild type]
	~7.9	TPVDRHVSSSDRVGKPYHGVKPVFS (peptide, UniProt Q9NUY8-2 514-538, looked up) [TBC1D23^514-538 R531H]
	~16.4	TPVDRHVSSSDRVGKPYRGVKPVLS (peptide, UniProt Q9NUY8-2 514-538, looked up) [TBC1D23^514-538 F537L]
	~6.6	TPVDRHVSSSDRVGKPYCGVKPVFS (peptide, UniProt Q9NUY8-2 514-538, looked up) [TBC1D23^514-538 R531C]

biological target: T1, FAM91A1^N (N terminus of FAM91A1, …); experiment: pull-down

Binder	binding result
TPVDRHVSSSDRVGKPYRGVKPVLSIGDEEEYDTDEIDSSSMSDD (domain or fragment, human, UniProt Q9NUY8-2 514-558, looked up) [GST-TBC1D23^514-558 F537L]	binds
TPVDRHVSSSDRVGKPYCGVKPVFSIGDEEEYDTDEIDSSSMSDD (domain or fragment, human, UniProt Q9NUY8-2 514-558, looked up) [GST-TBC1D23^514-558 R531C]	binds

Further lines, results first:

binding result	Binder
binds	TPVDRHVSSSDRVGKPYRGVKPVFSIGDEEEYDTDEIDSSSMSDD (domain or fragment, human, UniProt Q9NUY8-2 514-558, looked up) [GST-TBC1D23^514-558 wild type]
binds	TPVDRHVSSSDRVGKAYRGVKPVFSIGDEEEYDTDEIDSSSMSDD (domain or fragment, human, UniProt Q9NUY8-2 514-558, looked up) [GST-TBC1D23^514-558 P529A]
binds	TPVDRHVSSSDRVGKPYRGIKPVFSIGDEEEYDTDEIDSSSMSDD (domain or fragment, human, UniProt Q9NUY8-2 514-558, looked up) [GST-TBC1D23^514-558 V533I]
binds	TPVDQHVSSSDRVGKPYRGVKPVFSIGDEEEYDTDEIDSSSMSDD (domain or fragment, human, UniProt Q9NUY8-2 514-558, looked up) [GST-TBC1D23^514-558 R518Q]
binds	APVDRHVSSSDRVGKPYRGVKPVFSIGDEEEYDTDEIDSSSMSDD (domain or fragment, human, UniProt Q9NUY8-2 514-558, looked up) [GST-TBC1D23^514-558 T514A]
binds	TPVDRHVSSSDRVGKPYHGVKPVFSIGDEEEYDTDEIDSSSMSDD (domain or fragment, human, UniProt Q9NUY8-2 514-558, looked up) [GST-TBC1D23^514-558 R531H]
binds	TPVDRHVSSSDRVGKPYRGVNPVFSIGDEEEYDTDEIDSSSMSDD (domain or fragment, human, UniProt Q9NUY8-2 514-558, looked up) [GST-TBC1D23^514-558 K534N]
